# T1: MmeI (Methylophilus methylotrophus)
# T1 chain: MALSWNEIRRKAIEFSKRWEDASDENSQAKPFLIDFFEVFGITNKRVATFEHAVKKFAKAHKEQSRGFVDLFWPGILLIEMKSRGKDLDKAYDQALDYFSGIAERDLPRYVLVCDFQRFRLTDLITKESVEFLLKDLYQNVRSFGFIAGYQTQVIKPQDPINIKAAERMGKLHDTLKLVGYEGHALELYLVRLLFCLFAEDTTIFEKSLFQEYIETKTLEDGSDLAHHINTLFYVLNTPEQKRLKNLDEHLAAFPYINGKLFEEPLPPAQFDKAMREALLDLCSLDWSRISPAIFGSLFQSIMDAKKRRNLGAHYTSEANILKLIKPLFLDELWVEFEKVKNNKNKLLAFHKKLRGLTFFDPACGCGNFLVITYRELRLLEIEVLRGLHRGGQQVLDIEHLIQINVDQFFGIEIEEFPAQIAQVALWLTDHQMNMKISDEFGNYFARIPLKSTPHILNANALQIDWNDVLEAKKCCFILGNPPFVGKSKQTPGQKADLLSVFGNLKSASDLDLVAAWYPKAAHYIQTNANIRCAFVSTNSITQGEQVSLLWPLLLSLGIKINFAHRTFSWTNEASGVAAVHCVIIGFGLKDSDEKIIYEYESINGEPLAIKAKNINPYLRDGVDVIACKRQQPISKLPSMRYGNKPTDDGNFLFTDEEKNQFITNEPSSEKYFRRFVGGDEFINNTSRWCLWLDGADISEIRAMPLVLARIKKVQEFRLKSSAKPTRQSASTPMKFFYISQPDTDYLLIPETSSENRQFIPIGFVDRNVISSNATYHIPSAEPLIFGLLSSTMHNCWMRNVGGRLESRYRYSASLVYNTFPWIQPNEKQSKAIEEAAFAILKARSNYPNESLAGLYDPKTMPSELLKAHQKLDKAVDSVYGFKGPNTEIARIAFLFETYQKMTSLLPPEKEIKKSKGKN
# Columns and labels:
# MmeI [1] = biological target: T1, MmeI; experiment: methyltransferase activity; 3H-SAM incorporation; details: preparation used with the oligos not specified; label: 5'-FAM both strands
# MmeI [2] = biological target: T1, MmeI; experiment: methyltransferase activity on top strand; 3H-SAM incorporation; details: preparation used with the oligos not specified; label: 5'-FAM both strands
Binder,activity (MmeI [1]) [fold over background],activity (MmeI [2]) [fold over background]
oligo1+oligo2 unmethylated (dsDNA) DNA 1: GTTTGAAGACTCCGACGCGATGGCCAGCGATCGGCGCCTCAGCTTTTG DNA 2: CAAAAGCTGAGGCGCCGATCGCTGGCCATCGCGTCGGAGTCTTCAAAC,> 10,–
"oligo1+oligo4 bottom methylated (dsDNA, 6mA in bottom strand at GTCGG(6mA) (position 38)) DNA 1: GTTTGAAGACTCCGACGCGATGGCCAGCGATCGGCGCCTCAGCTTTTG DNA 2: CAAAAGCTGAGGCGCCGATCGCTGGCCATCGCGTCGGAGTCTTCAAAC",–,> 10

# Source: US20040091911, “Recombinant type II restriction endonucleases, MmeI and related endonucleases and methods for producing the same” (published 2004)
